# Measurements from patent publication US20140017255A1 (E R SQUIBB AND SONS L L C, published 2014).
# T1: cynomolgus BTLA (cynomolgus, UniProt A0A2K5W7M7 31-289)
# T1 construct: whole, on cells; also called cyno BTLA; monkey BTLA
# T1 sequence: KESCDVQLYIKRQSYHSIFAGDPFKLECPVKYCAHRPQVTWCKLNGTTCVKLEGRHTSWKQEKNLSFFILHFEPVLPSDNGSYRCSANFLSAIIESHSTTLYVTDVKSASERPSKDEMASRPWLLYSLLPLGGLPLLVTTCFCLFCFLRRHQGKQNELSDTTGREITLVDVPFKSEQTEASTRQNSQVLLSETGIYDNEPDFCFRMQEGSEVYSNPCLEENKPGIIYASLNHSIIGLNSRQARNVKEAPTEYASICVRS
# B1: hu Mab8D5 (IgG4 version, fully human monoclonal agonist anti-BTLA antibody) (antibody, V domains shown, not shown: a dimerising Fc or GST)
# VH: EVQLVESGGGLVQPGGSLRLSCAASGFTISSYDMHWVRQATGKGLEWVSVIGPAGDTYYPGSVKGRFTISRENAKNSLYLQMNSLRAGDTAVYYCAREGMAAHNYYGMDVWGQGTTVTVSS
# VL: not shown
# notes: also called hu Mab8D5 G4; 8D5 (G4) agonist
# Assays:
# cynomolgus BTLA = biological target: T1, cynomolgus BTLA; assay: flow cytometry, antibody titrated on CHO cells expressing cynomolgus BTLA, PE-anti-huFc detection, FL2 GMFI
# [1] = biological target: T2, human BTLA expressed on CHO cells (human, UniProt Q7Z6A9 31-289); assay: flow cytometry, antibody titrated on CHO cells expressing human BTLA, PE-anti-huFc detection, FL2 GMFI
# T2 construct: also called CHO/huBTLA; hBTLA
# T2 sequence (Q7Z6A9 other isoform, or with tags, fused parts or gaps limits assumed): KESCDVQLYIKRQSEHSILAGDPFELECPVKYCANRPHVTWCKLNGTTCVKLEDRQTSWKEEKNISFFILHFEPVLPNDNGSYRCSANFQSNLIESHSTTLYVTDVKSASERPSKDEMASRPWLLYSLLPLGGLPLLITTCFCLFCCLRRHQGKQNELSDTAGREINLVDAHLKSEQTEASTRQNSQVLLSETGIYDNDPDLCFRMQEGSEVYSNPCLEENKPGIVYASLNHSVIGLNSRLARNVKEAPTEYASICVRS
binder,measurement,setting,value
B1,EC50,cynomolgus BTLA,0.0136 µM
same,EC50,[1],0.0124 µM
